Measured values as given in paper doi:10.1101/2023.12.22.573000.

Target: T1, RIG-I (recombinant) (human? (GeneID 23586), UniProt O95786 1-925)
T1 sequence: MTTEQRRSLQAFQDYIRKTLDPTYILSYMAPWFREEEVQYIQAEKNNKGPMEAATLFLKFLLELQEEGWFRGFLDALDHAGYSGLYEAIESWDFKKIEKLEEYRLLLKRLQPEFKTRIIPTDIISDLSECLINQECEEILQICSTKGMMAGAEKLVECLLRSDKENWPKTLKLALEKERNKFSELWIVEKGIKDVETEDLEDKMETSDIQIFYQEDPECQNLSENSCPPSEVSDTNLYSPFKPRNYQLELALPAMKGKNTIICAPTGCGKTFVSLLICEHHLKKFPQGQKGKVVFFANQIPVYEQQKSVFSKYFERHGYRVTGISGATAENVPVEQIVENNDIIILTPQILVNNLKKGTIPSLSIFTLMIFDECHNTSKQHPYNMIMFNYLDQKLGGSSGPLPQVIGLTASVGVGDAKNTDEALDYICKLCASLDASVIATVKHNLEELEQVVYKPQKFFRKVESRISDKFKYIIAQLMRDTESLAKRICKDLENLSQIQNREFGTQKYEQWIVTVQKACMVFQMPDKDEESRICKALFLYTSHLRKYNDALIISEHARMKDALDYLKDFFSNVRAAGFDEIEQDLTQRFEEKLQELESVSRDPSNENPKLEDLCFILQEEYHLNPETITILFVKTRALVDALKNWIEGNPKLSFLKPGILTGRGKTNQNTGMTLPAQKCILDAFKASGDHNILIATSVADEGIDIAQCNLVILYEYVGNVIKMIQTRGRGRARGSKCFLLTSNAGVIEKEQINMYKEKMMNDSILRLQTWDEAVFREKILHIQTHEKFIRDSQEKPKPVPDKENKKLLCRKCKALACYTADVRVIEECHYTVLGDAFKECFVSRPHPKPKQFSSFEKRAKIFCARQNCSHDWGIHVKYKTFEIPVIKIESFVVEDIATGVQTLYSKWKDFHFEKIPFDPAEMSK
Test: EMSA

B1: 5'-pppA synthetic 24 bp dsRNA (dsRNA)
RNA 1: AGCAAAAGCAGGGUGACAAAGACA
RNA 2: UGUCUUUGUCACCCUGCUUUUGCU
modifications: 5'-ppp on sense strand only
With B1 the Kd was 0.4 nM.
